The text below walks through data of US20050250935A1 (priority 2004, published 2005).

As for “human follicle—stimulating hormone [FSH]”, the “estimated FSH activity, in vivo biological assay in rat” value was 6578 IU per mg protein. Besides, under “rat”, the “FSH activity in the lower sample after centrifugation, in vivo test” value is “undetectable” and the “FSH activity in the upper sample after centrifugation, in vivo test” value is given as 97%.
